Results taken from patent publication US5851983A, “Elastase inhibitory polypeptide and process for production thereof by recombinant gene technology” (Teijin Limited, priority 1987, dated 1998).

How the values were obtained:
Type in all cases: biochemical
[1] = target: T1, Calf pancreatic trypsin (Bos taurus, UniProt P00760); test: Serine protease inhibitory assay, Example 12: trypsin; details: read-out: concentration of inhibitory protein which exhibits a 50% inhibition; enzyme 10^-7 M; Bz-Arg-pNA 1.0 mM; 37° C.
T1 construct: (2) Calf pancreatic trypsin (Sigma); purchased Sigma; host or cells: calf pancreas
T1 sequence (P00760 24-246): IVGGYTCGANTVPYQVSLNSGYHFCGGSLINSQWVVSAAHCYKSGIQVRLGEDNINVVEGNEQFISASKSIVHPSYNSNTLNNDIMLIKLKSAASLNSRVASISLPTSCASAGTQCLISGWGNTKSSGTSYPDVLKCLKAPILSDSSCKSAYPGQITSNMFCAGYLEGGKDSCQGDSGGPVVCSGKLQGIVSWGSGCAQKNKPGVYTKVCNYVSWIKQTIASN
Protocol: (§1) Assay of serine protease inhibitory activity of active-type (Asn^55 -Ala^107) SLPI fragment polypeptide
(§2) The active-type (Asn^55 -Ala^107) SLPI fragment polypeptide obtained by refolding by the procedure shown in Example 11 as measured to determine its inhibitory activity to various serine proteases. The assay result thereof is shown as follows.
(§3) Enzyme solution: The following enzymes were dissolved in the above-mentioned buffer solutions at a concentration ten-times higher than the concentration shown in Table 4.
(2) Calf pancreatic trypsin (Sigma)
(§4) Substrate solution: For the above-mentioned enzymes (1) to (7), the following substrates (1) to (7), respectively, were dissolved in dimethyl sulfoxyde to a concentration of 10 mM to prepare stock solutions, which were then dissolved in the above-mentioned buffer solution to concentration ten-times higher than final concentrations, to prepare substrate solutions. […]
(§5) To each well of a 96-well ELISA microplate were added 140 μl of the above-mentioned buffer, 20 μl of a test solution, and 20 μl of the enzyme solution, and the mixture was stirred at 37° C. for 30 minutes. Next, 20 μl of the substrate solution was added to the well, the mixture was stirred at 37° C. for one hour to develop same, and the absorbance at 405 nm was measured.
Moreover, an inhibitory constant Ki of the present (Asn^55 -Ala^107) SLPI was calculated on the basis of the above data by a method of Dixon, M. and Webb, E. C. (1979), Enzyme, Longman or a method of Henderson, P. J. F. (1972) Biochem. J., 127, 321-333.

[2] = target: T2, Human plasma plasmin (Homo sapiens, UniProt P00747); test: Serine protease inhibitory assay, Example 12: plasmin; details: read-out: concentration of inhibitory protein which exhibits a 50% inhibition; enzyme 10^-8 M; H-D-Val-Leu-Lys-pNA 0.1 mM; 37° C.
T2 construct: (6) Human plasma plasmin (Kabi, Daiichi Kagaku Yakuhin); purchased Kabi (via Daiichi Kagaku Yakuhin); host or cells: human plasma
Protocol: as §1, §2, §3
(6) Human plasma plasmin (Kabi, Daiichi Kagaku Yakuhin)
as §4, §5

[3] = target: T3, Porcine pancreatic elastase (Sus scrofa, UniProt P00772); test: Serine protease inhibitory assay, Example 12: porcine elastase; details: read-out: concentration of inhibitory protein which exhibits a 50% inhibition; enzyme 6 × 10^-9 M; Suc-Ala-Ala-Ala-pNA 0.1 mM; 37° C.
T3 construct: (4) Porcine pancreatic elastase (Sigma); purchased Sigma; host or cells: porcine pancreas
Protocol: as §1, §2, §3
(4) Porcine pancreatic elastase (Sigma)
as §4, §5

[4] = target: T4, polymorphonuclear leukocyte elastase from human sputum (Homo sapiens, UniProt P08246); test: Serine protease inhibitory assay, Example 12: human elastase; details: read-out: concentration of inhibitory protein which exhibits a 50% inhibition; enzyme 10^-9 M; MeO-Suc-Ala-Ala-Pro-Val-pNA 0.3 mM; 37° C.
T4 construct: Polymorphonuclear leukocyte elastase from human sputum (EPC Co; Funakoshi Yakuhin); purchased EPC Co. (via Funakoshi Yakuhin); host or cells: human sputum
T4 sequence (P08246 30-267): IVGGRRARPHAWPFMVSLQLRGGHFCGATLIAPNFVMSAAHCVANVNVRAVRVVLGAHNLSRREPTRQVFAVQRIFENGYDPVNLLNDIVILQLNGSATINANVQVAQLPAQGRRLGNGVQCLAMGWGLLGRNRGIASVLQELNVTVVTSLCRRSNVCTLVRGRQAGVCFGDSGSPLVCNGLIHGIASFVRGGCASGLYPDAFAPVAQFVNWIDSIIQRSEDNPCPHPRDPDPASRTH
Protocol: as §5

[5] = target: T5, Calf pancreatic chymotrypsin (Bos taurus, UniProt P00766); test: Serine protease inhibitory assay, Example 12: chymotrypsin; details: read-out: concentration of inhibitory protein which exhibits a 50% inhibition; enzyme 10^-8 M; Suc-Ala-Ala-Pro-Phe-pNA 0.1 mM; 37° C.
T5 construct: (3) Calf pancreatic chymotrypsin (Sigma); purchased Sigma; host or cells: calf pancreas
Protocol: as §1, §2, §3
(3) Calf pancreatic chymotrypsin (Sigma)
as §4, §5

[6] = target: T6, Human plasma kallikrein (Homo sapiens, UniProt P03952); test: Serine protease inhibitory assay, Example 12: kallikrein; details: read-out: concentration of inhibitory protein which exhibits a 50% inhibition; enzyme 10^-8 M; H-D-Pro-Phe-Arg-pNA 0.1 mM; 37° C.
T6 construct: (7) Human plasma kallikrein (Kabi, Daiichi Kagaku Yakuhin); purchased Kabi (via Daiichi Kagaku Yakuhin); host or cells: human plasma
Protocol: as §1, §2, §3
(7) Human plasma kallikrein (Kabi, Daiichi Kagaku Yakuhin)
as §4, §5

[7] = target: T7, Human plasma thrombin (Homo sapiens, UniProt P00734); test: Serine protease inhibitory assay, Example 12: thrombin; details: read-out: concentration of inhibitory protein which exhibits a 50% inhibition; enzyme 10^-11 M; H-D-Phe-Pip-Arg-pNA 0.1 mM; 37° C.
T7 construct: (5) Human plasma thrombin (Kabi, Daiichi Kagaku Yakuhin); purchased Kabi (via Daiichi Kagaku Yakuhin); host or cells: human plasma
Protocol: as §1, §2, §3
(5) Human plasma thrombin (Kabi, Daiichi Kagaku Yakuhin)
as §4, §5

[8] = test system: Porcine FXa; test: Assay for Fxa inhibitory activity (Example 25); details: final concentration up to ×10^-5 M; enzyme 1.0 × 10^-8 M
Protocol: I. Porcine FXa (Daichi Seiyaku)
(§6) Buffer: Buffer solution for each enzyme is as follow. Thrombin and FXa: 50 mM Tris-HCl, 7.5 mM EDTA-2Na, 175 mM NaCl (pH 8.4) […]
(§7) Substrate solution: for the enzymes F, G, H and I, the following substrate f, g, h or i, respectively, was dissolved to a final concentration shown in Table 14.
i. Ratio 1:1 mixture of the following compounds: [drawing 5]
(§8) To wells of an ELISA 96-well microtiter plate, were added a solution of (Arg^59 -Ala^107) SLPI obtained in Example 23 and then the enzyme solution, and the mixture was incubated at 37° C. for 10 minutes. Next, the substrate solution was added to develop the color, whose absorption was then measured at 405 nm. As a control, SLPI was used.

[9] = target: T2, Human plasma plasmin; test: Assay for plasmin inhibitory activity (Example 25); details: final concentration up to ×10^-5 M; enzyme 1.0 × 10^-7 M
Protocol: G. Human plasma plasmin (sigma)
Plasmin: 50 mM Tris-HCl, 100 mM NaCl (pH 7.4) […]
as §7
g. H.D-Val-Leu-Lys-pNA (Kabi Vitrum)
as §8

[10] = target: T7, Human plasma thrombin; test: Assay for thrombin inhibitory activity (Example 25); details: final concentration up to ×10^-5 M; enzyme 3 × 10^-9 M
Protocol: F. Human plasma thrombin (Sigma)
as §6, §7
f. H.D-Phe-Pip-Arg-pNA (Kabi Vitrum)
as §8

[11] = test system: polymorphonuclear leucocyte elastase from human sputum; test: Inhibitory constant (Ki) assay, elastase (Example 26); details: from Table 16
Protocol: Method for assay is as follow.
Buffer: 0.1M N-(2-hydroxyethyl)piperazine-N'-2-ethanesulfonic acid (HEPES), 1.0M NaCl, 0.1% polyethylene glycol (pH 7.5)
Enzyme solution: the following enzyme was dissolved in the above-mentioned buffer to a concentration 9 times that shown in Table 15.
(§9) A. Polymorphonuclear leucocyte elastase from human sputum (EPC Co., Funakoshi Yakuhin)
Substrate solution: for the enzymes A and B, the following substrate a or b was dissolved in a solution of DMSO+the above-mentioned buffer (1:9), or in DMSO, respectively.
(§10) a. MeO-Suc-Ala-Ala-Pro-Val-pNA (Bachem) […]
To wells of an ELISA 96-well microtiter plate, were added 120 μl of the buffer, 20 μl of a sample solution of (Arg^59 -Ala^107) SLPI obtained in Example 23, and 20 μl of the enzyme solution in this order, an the mixture was reacted at 37° C. for 1 hour. Next, 20 μl of the substrate was added to develop at 25° C. Absorption of the developed color was measured at 405 nm. As a control, SLPI was used.
On the basis of the result thus obtained, an inhibitory constant (Ki) of (Arg^59 -Ala^107) SLPI of the present invention was calculated according to the method of Henderson (Henderson, P. J. F. (1972), Biochem. J. 127, 321-333).

[12] = target: T6, Human plasma kallikrein; test: Assay for kallikrein inhibitory activity (Example 25); details: final concentration up to ×10^-5 M; enzyme 1.0 × 10^-7 M
Protocol: H. Human plasma kallikrein (Protogene, Funakoshi Yakuhin)
Kallikrein: 50 mM Tris-HCl, 361 mM NaCl, 0.01 mg/ml polybrene (pH 7.8) […]
as §7
h. H.D-Pro-Phe-Arg-pNA (Kabi Vitram)
as §8

[13] = target: T8, Bovine spleen trypsin (Bos taurus, UniProt P00760); test: Assay for trypsin inhibitor activity (Example 24); details: enzyme 2 × 10^-7 M, substrate 1.0 × 10^-3 M
T8 construct: purchased Sigma
T8 sequence (P00760 24-246): T1 sequence (P00760 24-246)
Protocol: (§11) The following assay method was used.
(§12) Buffer: 0.1M (2-hydroxyethyl)piperazine-N'-2-ethansulfonic acid (HEPES), 0.5M NaCl, pH 7.5.
(§13) Enzyme concentration: the following enzyme was dissolved in the above-mentioned buffer to a concentration 9 times that shown in Table 12.
B. Bovine spleen trypsin (Sigma)
Substrate solution: for the enzymes A, B, C, D and E, the following substrate a, b, c, d or e, respectively, was dissolved in a solution of DMSO+the above-mentioned buffer (1:9) (note, final concentration of DMSO was 10% in the buffer) to a concentration of 9 times that shown in Table 12. […]
(§14) To wells of an ELISA 96-well microtiter plate, were added 120 μl of the buffer and the 20 μl of a sample solution of (Arg^59 -Ala^107) SLPI obtained in Example 23, followed by 20 μl of the enzyme solution. The mixture was reacted at 37° C. for 10 minutes. Next, 20 μl of the substrate was added, and developed at 37° C. The developed color was measured by absorption at 405 nm.
(§15) As a control the same procedure was carried out using SLPI.

[14] = target: T9, polymorphonuclear leucocyte elastase from human sputum (Homo sapiens, UniProt P08246); test: Assay for elastase inhibitor activity (Example 24); details: enzyme 2 × 10^-8 M, substrate 3.0 × 10^-4 M
T9 construct: Polymorphonuclear leukocyte elastase from human sputum (EPC Co; Funakoshi Yakuhin); purchased EPC Co. (via Funakoshi Yakuhin); host or cells: human sputum
T9 sequence (P08246 30-267): T4 sequence (P08246 30-267)
Protocol: as §11, §12, §13, §9
Substrate solution: for the enzymes A, B, C, D and E, the following substrate a, b, c, d or e, respectively, was dissolved in a solution of DMSO+the above-mentioned buffer (1:9) (note, final concentration of DMSO was 10% in the buffer) to a concentration of 9 times that shown in Table 12.
as §10, §14, §15

T6 sequence (P03952 391-638 limits assumed): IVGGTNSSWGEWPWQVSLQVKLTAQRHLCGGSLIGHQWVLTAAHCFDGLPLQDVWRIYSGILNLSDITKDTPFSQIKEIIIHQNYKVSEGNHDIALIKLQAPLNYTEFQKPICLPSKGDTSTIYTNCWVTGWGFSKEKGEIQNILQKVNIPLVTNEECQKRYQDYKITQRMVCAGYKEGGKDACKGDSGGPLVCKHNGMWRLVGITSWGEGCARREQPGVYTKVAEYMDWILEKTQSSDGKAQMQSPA
T6 sequence (P03952 20-390 partner limits assumed): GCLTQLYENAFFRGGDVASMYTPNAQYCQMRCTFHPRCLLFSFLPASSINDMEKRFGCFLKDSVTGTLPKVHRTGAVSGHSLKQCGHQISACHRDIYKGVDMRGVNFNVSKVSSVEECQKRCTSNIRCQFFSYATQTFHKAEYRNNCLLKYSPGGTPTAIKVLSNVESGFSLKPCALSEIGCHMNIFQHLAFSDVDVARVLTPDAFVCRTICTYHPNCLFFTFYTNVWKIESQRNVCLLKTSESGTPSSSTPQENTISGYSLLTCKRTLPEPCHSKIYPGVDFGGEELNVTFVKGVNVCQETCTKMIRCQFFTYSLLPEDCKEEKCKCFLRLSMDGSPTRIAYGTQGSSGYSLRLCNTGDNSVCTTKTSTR
T2 sequence (P00747 581-810 limits assumed): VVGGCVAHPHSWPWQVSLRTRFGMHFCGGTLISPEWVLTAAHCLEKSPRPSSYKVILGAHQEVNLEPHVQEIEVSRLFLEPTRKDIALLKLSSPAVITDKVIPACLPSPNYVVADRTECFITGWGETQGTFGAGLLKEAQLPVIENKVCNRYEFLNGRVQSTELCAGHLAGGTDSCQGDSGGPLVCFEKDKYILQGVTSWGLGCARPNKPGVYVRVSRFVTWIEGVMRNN
T2 sequence (P00747 97-580 partner limits assumed): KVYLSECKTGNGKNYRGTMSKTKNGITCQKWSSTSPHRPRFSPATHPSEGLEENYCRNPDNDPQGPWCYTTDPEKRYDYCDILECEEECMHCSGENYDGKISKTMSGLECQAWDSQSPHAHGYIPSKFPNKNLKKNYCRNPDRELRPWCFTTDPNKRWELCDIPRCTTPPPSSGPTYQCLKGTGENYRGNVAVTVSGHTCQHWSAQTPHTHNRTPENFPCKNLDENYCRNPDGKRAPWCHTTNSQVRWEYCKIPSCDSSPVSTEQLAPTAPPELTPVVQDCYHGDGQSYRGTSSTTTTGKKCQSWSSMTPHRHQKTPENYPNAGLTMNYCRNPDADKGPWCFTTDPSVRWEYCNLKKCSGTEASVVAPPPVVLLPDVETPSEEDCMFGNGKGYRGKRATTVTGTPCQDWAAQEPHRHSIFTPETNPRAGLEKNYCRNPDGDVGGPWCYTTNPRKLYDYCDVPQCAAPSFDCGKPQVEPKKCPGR
T3 sequence (P00772 27-266): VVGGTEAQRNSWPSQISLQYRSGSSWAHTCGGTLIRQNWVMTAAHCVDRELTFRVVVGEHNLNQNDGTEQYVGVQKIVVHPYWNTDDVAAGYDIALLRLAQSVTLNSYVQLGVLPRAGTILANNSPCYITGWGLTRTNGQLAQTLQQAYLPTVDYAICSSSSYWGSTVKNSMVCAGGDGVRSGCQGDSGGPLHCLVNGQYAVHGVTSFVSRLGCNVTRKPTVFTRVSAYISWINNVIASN

IC50 [1] [nM]	IC50 [2] [nM]	IC50 [3] [nM]	IC50 [4] [nM]	IC50 [5] [nM]	IC50 [6] [nM]	IC50 [7] [nM]	inhibitory activity to plasmin [9]	inhibitory activity to thrombin [10]	relative ratio of inhibitory activity on trypsin to that on elastase (Ki(T)/Ki(E)) [11]	inhibitory activity to kallikrein [12]	IC50 [13] [nM]	IC50 [14] [nM]	Substance	inhibitory activity to FXa [8]
100	5	> 2000	300	50	70	> 2000	–	–	–	–	–	–	Aprotinin	–
200	> 2000	300	–	2000	> 2000	> 2000	–	–	–	–	–	–	α1 -PI: α1 -AT (Sigma), inhibitory protein used as a positive control	–
–	–	–	–	–	–	–	did not exhibit inhibitory activity	did not exhibit inhibitory activity	about 14,000	did not exhibit inhibitory activity	2000	12	(Arg^59 -Ala^107) SLPI: polypeptide having an amino acid sequence starting with the 59th Arg and ending at the 107th Ala of SLPI (RKPGKCPVTYGQCLMLNPPNFCEMDGQCKRDLKCCMGMCGKSCVSPVKA)	did not exhibit inhibitory activity
